Results published in US6974863 (INDIANA UNIVERSITY RESEARCH AND TECHNOLOGY, dated 2005).
Values belong to the molecule of their own block, whether it stands above or below them.

What was measured:
[1] = target: 4-1BB-AP binding sites (putative cell-surface 4-1BB ligand) on mature B cells and macrophages; assay: competition on A20 cells: 20 µg/ml rs4-1BB (50 fold excess) before 4-1BB-AP at 375 ng/ml as competitor; AP activity
human vitronectin = target: T1, human vitronectin (human, UniProt P04004 20-478); assay: ELISA, human vitronectin immobilized on microtiter plates, AP activity (data not shown)
T1 construct: Bought protein
Procedure: Chalupny and colleagues (132) have proposed that 4-1BB Rg, a fusion protein consisting of the extracellular domain of 4-1BB and the Fc region of human IgG, bound to the extracellular matrix (ECM). The highest levels of 4-1BB Rg binding was to human vitronectin. In data not shown, an ELISA was performed using 4-1BB-AP and human vitronectin (Yelios Pharmaceuticals/GIBCO-BRL, Grand Island, N.Y.) immobilized at 0.007 μg–10 μg per well on microtiter plates. No binding of 4-1BB-AP based on AP activity was observed. To rule out the possibility that 4-1BB-AP was binding to proteins extrinsically attached to the cell surface (possible extracellular matrix components), B-cell lymphomas were washed in acid conditions prior to the binding assay (115). 4-1BB-AP still bound specifically to mature B-cell lymphomas (data not shown). We are currently determining whether a 4-1BB-ligand specifically expressed on B cells and macrophages exists, and whether 4-1BB-AP may bind to the ECM under particular binding conditions. It is possible that the ECM could facilitate the binding of 4-1BB to a specific cell-surface ligand.

[2] = target: T2, mutated p56lck, construct C1 (cys 20-ser) (murine, UniProt P06240 2-509); assay: coimmunoprecipitation with 53A2, in vitro kinase labeling, HeLa cells
T2 construct: Expressed in HeLa cells with the vaccinia T7 system; also called mutant p56^lck C1
Text: (§1) High levels of coexpression have been achieved previously with this system to facilitate interactions between CD4 and p56^lck. To ensure consistent expression of 4-1BB, the transfected HeLa cells were briefly labeled with [^35S] cysteine before harvest. 4-1BB expression was monitored by immunoprecipitation of ^35S-labeled 4-1BB with 53A2.
(§2) FIGS. 32a–c show an analysis of the association of 4-1BB and p56^lck HeLa cells. […] Lysates were immunoprecipitated with antibodies to p56^lck and 4-1BB and labeled with [γ-^32P] ATP by the in vitro kinase reaction. The positions of p56^lck and 4-1BB are indicated to the right. Total HeLa celll lysates were immunoblotted with antibody top56^lck assay thep56^lck expression. FIGS. 32b and 32c show an immune complex kinase assay. Aliquots of the saline lysates were immunoprecipitated with antip56^lck serum (FIG. 32b) or 53A2 (FIG. 32c) followed by the in vitro kinase reaction with [γ-^32P] ATP as described in the legend to FIG. 30. […] HeLa celis were grown to 80% confluency on 100-mm petri dishes in DMEM containing 10% FBS and antibiotics. Cells were infected with 1×10^8 pfu of vaccinia virus expressing T7 RNA polymerase (136) 30 min before transfection. DNA was transfected in liposomes (Lipofectin, GIBCO, BRL). 15 μg DNA and 50 μl liposome diluted into 5 ml serum-free DMEM were incubated in 12×75 mm polystyrene tubes at room temperature for 15 min. […]

[3] = target: T3, mutated p56lck, construct C2 (cys 23-ser) (murine, UniProt P06240 2-509); assay: as above
T3 construct: Expressed in HeLa cells with the vaccinia T7 system; also called mutant p56^lck C2
Text: as §1, §2

T3 sequence (P06240 other isoform, or with tags, fused parts or gaps limits assumed, change not shown): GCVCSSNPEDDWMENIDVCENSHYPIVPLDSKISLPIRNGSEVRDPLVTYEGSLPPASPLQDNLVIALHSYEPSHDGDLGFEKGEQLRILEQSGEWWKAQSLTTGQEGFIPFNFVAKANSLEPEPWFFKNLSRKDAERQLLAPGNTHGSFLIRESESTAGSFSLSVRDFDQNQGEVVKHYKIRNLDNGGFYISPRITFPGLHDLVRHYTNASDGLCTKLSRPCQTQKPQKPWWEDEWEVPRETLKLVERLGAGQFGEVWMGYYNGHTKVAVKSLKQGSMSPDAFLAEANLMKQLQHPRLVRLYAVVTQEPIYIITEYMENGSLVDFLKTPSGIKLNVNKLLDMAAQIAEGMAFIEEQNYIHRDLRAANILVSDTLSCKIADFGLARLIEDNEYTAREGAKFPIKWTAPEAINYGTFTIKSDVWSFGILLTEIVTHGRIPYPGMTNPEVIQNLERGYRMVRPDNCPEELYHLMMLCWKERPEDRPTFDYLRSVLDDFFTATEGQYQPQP
T1 sequence (P04004 20-478 limits assumed): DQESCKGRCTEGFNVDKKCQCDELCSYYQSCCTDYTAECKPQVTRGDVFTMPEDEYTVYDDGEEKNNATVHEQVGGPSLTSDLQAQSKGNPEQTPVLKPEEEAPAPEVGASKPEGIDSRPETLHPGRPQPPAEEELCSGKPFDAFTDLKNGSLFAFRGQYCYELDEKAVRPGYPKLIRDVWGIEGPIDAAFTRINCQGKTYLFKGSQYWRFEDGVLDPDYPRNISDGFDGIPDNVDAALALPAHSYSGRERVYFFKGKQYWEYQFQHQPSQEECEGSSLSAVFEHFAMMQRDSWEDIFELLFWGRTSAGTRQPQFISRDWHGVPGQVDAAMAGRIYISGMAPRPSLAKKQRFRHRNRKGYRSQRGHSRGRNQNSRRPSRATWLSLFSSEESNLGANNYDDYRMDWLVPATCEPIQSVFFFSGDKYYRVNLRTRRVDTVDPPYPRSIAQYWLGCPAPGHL
T2 sequence (P06240 other isoform, or with tags, fused parts or gaps limits assumed, change not shown): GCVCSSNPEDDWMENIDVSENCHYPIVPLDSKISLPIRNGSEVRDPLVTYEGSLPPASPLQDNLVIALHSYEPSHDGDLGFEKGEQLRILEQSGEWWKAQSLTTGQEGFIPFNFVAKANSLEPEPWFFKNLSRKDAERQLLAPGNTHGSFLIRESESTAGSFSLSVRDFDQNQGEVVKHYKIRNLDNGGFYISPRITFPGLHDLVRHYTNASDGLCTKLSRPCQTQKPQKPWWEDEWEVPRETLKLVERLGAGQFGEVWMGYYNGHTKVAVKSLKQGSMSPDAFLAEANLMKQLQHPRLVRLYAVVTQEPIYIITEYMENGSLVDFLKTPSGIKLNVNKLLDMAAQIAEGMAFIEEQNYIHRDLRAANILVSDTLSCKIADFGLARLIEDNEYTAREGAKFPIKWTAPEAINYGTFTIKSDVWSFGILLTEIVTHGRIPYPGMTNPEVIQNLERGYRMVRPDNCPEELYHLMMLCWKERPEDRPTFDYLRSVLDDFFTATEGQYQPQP

percent of 4-1BB-AP binding blocked [1]: 70%
Molecule: recombinant soluble 4-1BB protein (extracellular domain of mouse 4-1BB) (from UniProt P20334 24-187) (receptor)

B1: 4-1BB-AP fusion protein (extracellular domain of 4-1BB fused to human placental alkaline phosphatase) (other)
chain: VQNSCDNCQPGTFCRKYNPVCKSCPPSTFSSIGGQPNCNICRVCAGYFRFKKFCSSTHNAECECIEGFHCLGPQCTRCEKDCRPGQELTKQGCKTCSLGTFNDQNGTGVCRPWTNCSLDGRSVLKTGTTEKDVVCGPPVVSFSPSTTISVTPEGGPGGHSLQVL
notes: Signal peptide and entire extracellular domain of 4-1BB up to the first hydrophobic residue of the transmembrane region, joined in frame upstream of AP; secreted by NIH-3T3 transfectants; also called 4-1BB-Alkaline Phosphatase; 85 kDa fusion protein; not shown: human placental alkaline phosphatase as coded in the APtag-1 vector
binding result (human vitronectin): no binding (tested: 0.007 µg-10 µg per well)

binding result [2]: no binding | binding result [3]: no binding
B2: mouse receptor protein 4-1BB (full length) (receptor)
chain: VQNSCDNCQPGTFCRKYNPVCKSCPPSTFSSIGGQPNCNICRVCAGYFRFKKFCSSTHNAECECIEGFHCLGPQCTRCEKDCRPGQELTKQGCKTCSLGTFNDQNGTGVCRPWTNCSLDGRSVLKTGTTEKDVVCGPPVVSFSPSTTISVTPEGGPGGHSLQVLTLFLALTSALLLALIFITLLFSVLKWIRKKFPHIFKQPFKKTTGAAQEEDACSCRCPQEEEGGGGGYEL
notes: Native on T cells (CTLL-R8, CTLL-2, F1, splenic T cells, thymocytes) or recombinant full length in Sf-21 and HeLa cells; also tested in lysates and blots; Seen as 30 kDa monomer, 55 kDa dimer and possibly 110 kDa tetramer; homodimer not proven; also called 4-1BBP; 4-1BBL (full length cDNA construct)
